T1: endogenous 14-3-3ζ (YWHAZ) in A549 cells (human (endogenous in A549)), P63104
T1 chain: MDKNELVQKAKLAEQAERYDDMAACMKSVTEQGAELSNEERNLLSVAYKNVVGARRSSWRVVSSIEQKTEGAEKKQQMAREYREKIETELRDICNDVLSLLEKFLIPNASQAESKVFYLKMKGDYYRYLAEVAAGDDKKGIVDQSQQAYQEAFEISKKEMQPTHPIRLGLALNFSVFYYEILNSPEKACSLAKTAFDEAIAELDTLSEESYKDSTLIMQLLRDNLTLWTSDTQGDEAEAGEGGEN

T2: purified recombinant 14-3-3ζ, P63104
T2 chain: T1 chain

B1: endogenous 14-3-3ζ (YWHAZ) in A549 cells, P63104 1-245 (natural protein)
chain: T1 chain
B2: purified recombinant 14-3-3ζ, P63104 1-245 (natural protein)
chain: T1 chain

Columns and labels:
Conditions in all cases: remark: other sources report otherwise
[1] = biological target: T1, endogenous 14-3-3ζ (YWHAZ) in A549 …; test: cross-linking
[2] = biological target: T1, endogenous 14-3-3ζ (YWHAZ) in A549 …; test: native gel or EMSA
[3] = biological target: T2, purified recombinant 14-3-3ζ, P63104; test: cross-linking

Binder	stoichiometry N [1]	stoichiometry N [2]	stoichiometry N [3]
B1	2	2	–
B2	–	–	2

From article PMC12381585
